# Patent US20160002331A1 (Pfizer, published 2016)
# “And” between values parts separate entries of the source, which are not always exact repeats. Equal values may be shown once.
# T1: human Notch1 NRR_Avi_His recombinant protein (human, UniProt P46531 1434-1737)
# T1 construct: Secreted from CHO-PACE cells; cleaved at S1 into an N-terminal ~26 kDa half (LNR-A, B, C, HD1) and a C-terminal ~12 kDa half (HD2 and tag) that stay associated non-covalently; written here as one chain; also called recombinant human Notch1 NRR; human Notch1 NRR immunogen
# T1 sequence: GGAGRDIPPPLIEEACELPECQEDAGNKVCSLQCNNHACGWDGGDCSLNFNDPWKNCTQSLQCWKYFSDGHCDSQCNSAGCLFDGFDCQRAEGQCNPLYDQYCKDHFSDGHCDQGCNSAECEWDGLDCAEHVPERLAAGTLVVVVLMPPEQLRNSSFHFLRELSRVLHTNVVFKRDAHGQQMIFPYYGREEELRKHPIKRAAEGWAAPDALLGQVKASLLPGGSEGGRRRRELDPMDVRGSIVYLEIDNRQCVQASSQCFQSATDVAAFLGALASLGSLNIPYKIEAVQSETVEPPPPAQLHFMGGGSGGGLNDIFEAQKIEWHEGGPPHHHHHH
# Tests used:
# [1] = biological target: T2, full-length human Notch1 expressed on the cell surface (human, UniProt P46531 19-2555); assay: cell-based ELISA, U-2 OS cells expressing full-length human Notch1
# T2 construct: whole, on cells; On U-2 OS cells stably overexpressing it (ELISAs, reporter cells); also called cell surface full-length human Notch1; native Notch1 receptor
# Procedure: (§1) Supernatants from clones displaying positive binding to immunogens in recombinant Notch1 NRR based ELISAs described above were then screened for cell surface Notch1 binding in a cell-based ELISA. U-2 OS cells stably overexpressing human or mouse full length Notch1 protein on cell surface were plated at 50,000 cells/well in 96 well plates (white opaque, BD/VWR) the day before ELISA assay. On the day of the ELISA, culture media were removed from wells and serially diluted (1:3 in blocking buffer) antibody solutions or hybridoma culture supernatants were applied to the plate. Plates were incubated at room temperature for 2 hours before being washed with PBS-Mg/Ca. HRP-conjugated secondary antibody was then applied and incubated with cells for 1 hour as described above for recombinant protein ELISA. Plates were washed with PBS-Mg/Ca before being developed with Pico-Chemiluminescent developing kit (Thermal Scientific), and chemiluminescence measurements were performed per manufacturer's instructions. Data plotting and analyses were performed with Microsoft Excel and Graphpad-Prizm software.
# [2] = biological target: T2, full-length human Notch1 expressed on …; assay: competition ELISA on U-2 OS cells expressing full-length human Notch1; competitor 0.8 nM biotinylated rat 351
# Procedure: (§2) In a similar manner as described for recombinant protein or cell based ELISAs, 96 well cell culture plates were either coated with Notch1 NRR-Avi_His protein (hi-bound co-Star plates), or seeded with full length Notch1 expressing U-2 OS cells (cell culture plate, Co-star), respectively.
# (§3) After incubation for 2 hours, the plates were washed, as described above, and HRP-conjugated streptavidin (Southern Biotech) diluted 1:5000 in blocking buffer was applied. Incubation with streptavidin was allowed for 30 min before the plates were washed again and developed with TMB solution for 10 minutes. Developing reaction was stopped by adding 0.18M H₂SO₄ and absorbance at 450 nm was measured. Data plotting and analyses were performed with Microsoft Excel and Graphpad-Prizm software.
# [3] = biological target: T2, full-length human Notch1 expressed on …; assay: cell-based or functional assay
# [4] = biological target: T3, full-length mouse Notch1 expressed on the cell surface of U-2 OS cells (mouse, UniProt Q01705 19-2531); assay: cell-based or functional assay
# [5] = biological target: T3, full-length mouse Notch1 expressed on …; assay: cell-based ELISA, U-2 OS cells expressing full-length mouse Notch1
# Procedure: as §1
# [6] = biological target: T1, human Notch1 NRR_Avi_His recombinant …; assay: SPR (Biacore T100), antibody captured by anti-human IgG-Fc, NRR_Avi_His as analyte, 1:1 Langmuir model
# Procedure: (§4) The kinetic constants of the anti-Notch1 NRR interactions were determined by surface plasmon resonance (Biacore® T100, Biacore Inc., Piscataway, N.J.). Flow cells of a CM5 chip were immobilized with approximately 10,000 Resonance Unit (RU) of anti-human IgG-Fc (Biacore®) in 10 mM Glycine, pH 5.0 at 10 μl/min for 600 seconds. […] Association of four concentrations of human Notch1 NRR_Avi_His recombinant protein (from 3.7-100 nM) and a zero concentration (running buffer) at 100 μl/min were recorded for 3 minutes in TBS with 1 mM CaCl₂. Dissociation of the complexes was measured for 10 minutes. The surface of the chip was regenerated by injecting 3M MgCl₂ with 3 mM EGTA for 60 seconds at 10 μl/min. Curves obtained after subtraction of the reference and buffer signals were fitted to a 1:1 Langmuir binding model with Biacore® T100 Evaluation Software (Biacore®).
# [7] = biological target: T1, human Notch1 NRR_Avi_His recombinant …; assay: SPR (Biacore T100), ratio of KD to that of rat 351
# [8] = biological target: T4, Notch1 receptor with L1575P mutation (HPB-ALL cells) (UniProt P46531 19-2555, limits assumed); assay: cell-based or functional assay
# [9] = biological target: T2, full-length human Notch1 expressed on …; assay: competition ELISA on U-2 OS cells expressing full-length human Notch1; competitor 0.8 nM biotinylated rat 438
# Procedure: as §2, §3
# [10] = biological target: T2, full-length human Notch1 expressed on …; assay: cell-based or functional assay; remark: listed apart in the source
# [11] = biological target: T3, full-length mouse Notch1 expressed on …; assay: cell-based or functional assay; remark: listed apart in the source
# [12] = biological target: T1, human Notch1 NRR_Avi_His recombinant …; assay: SPR (Biacore T100), ratio of KD to that of rat 438-hIgG1
# Procedure: as §4
# [13] = biological target: T1, human Notch1 NRR_Avi_His recombinant …; assay: competition ELISA on coated human Notch1 NRR_Avi_His; competitor 0.8 nM biotinylated rat 438
# Procedure: as §2, §3
# [14] = biological target: T4, Notch1 receptor with L1575P mutation …; assay: cell-based or functional assay; remark: listed apart in the source
# [15] = biological target: Notch1 receptor with a 12 amino acid insertion at position 1595 (CCRF-CEM cells) (UniProt P46531 19-2555); assay: cell-based or functional assay
# [16] = biological target: T2, full-length human Notch1 expressed on …; assay: cell-based or functional assay; remark: listed apart in the source
# [17] = biological target: T2, full-length human Notch1 expressed on …; assay: cell-based or functional assay; remark: listed apart in the source
# Notch1 receptor with a 12 amino acid insertion at position 1595 (CCRF-CEM cells), sequence (P46531 other isoform, or with tags, fused parts or gaps limits assumed): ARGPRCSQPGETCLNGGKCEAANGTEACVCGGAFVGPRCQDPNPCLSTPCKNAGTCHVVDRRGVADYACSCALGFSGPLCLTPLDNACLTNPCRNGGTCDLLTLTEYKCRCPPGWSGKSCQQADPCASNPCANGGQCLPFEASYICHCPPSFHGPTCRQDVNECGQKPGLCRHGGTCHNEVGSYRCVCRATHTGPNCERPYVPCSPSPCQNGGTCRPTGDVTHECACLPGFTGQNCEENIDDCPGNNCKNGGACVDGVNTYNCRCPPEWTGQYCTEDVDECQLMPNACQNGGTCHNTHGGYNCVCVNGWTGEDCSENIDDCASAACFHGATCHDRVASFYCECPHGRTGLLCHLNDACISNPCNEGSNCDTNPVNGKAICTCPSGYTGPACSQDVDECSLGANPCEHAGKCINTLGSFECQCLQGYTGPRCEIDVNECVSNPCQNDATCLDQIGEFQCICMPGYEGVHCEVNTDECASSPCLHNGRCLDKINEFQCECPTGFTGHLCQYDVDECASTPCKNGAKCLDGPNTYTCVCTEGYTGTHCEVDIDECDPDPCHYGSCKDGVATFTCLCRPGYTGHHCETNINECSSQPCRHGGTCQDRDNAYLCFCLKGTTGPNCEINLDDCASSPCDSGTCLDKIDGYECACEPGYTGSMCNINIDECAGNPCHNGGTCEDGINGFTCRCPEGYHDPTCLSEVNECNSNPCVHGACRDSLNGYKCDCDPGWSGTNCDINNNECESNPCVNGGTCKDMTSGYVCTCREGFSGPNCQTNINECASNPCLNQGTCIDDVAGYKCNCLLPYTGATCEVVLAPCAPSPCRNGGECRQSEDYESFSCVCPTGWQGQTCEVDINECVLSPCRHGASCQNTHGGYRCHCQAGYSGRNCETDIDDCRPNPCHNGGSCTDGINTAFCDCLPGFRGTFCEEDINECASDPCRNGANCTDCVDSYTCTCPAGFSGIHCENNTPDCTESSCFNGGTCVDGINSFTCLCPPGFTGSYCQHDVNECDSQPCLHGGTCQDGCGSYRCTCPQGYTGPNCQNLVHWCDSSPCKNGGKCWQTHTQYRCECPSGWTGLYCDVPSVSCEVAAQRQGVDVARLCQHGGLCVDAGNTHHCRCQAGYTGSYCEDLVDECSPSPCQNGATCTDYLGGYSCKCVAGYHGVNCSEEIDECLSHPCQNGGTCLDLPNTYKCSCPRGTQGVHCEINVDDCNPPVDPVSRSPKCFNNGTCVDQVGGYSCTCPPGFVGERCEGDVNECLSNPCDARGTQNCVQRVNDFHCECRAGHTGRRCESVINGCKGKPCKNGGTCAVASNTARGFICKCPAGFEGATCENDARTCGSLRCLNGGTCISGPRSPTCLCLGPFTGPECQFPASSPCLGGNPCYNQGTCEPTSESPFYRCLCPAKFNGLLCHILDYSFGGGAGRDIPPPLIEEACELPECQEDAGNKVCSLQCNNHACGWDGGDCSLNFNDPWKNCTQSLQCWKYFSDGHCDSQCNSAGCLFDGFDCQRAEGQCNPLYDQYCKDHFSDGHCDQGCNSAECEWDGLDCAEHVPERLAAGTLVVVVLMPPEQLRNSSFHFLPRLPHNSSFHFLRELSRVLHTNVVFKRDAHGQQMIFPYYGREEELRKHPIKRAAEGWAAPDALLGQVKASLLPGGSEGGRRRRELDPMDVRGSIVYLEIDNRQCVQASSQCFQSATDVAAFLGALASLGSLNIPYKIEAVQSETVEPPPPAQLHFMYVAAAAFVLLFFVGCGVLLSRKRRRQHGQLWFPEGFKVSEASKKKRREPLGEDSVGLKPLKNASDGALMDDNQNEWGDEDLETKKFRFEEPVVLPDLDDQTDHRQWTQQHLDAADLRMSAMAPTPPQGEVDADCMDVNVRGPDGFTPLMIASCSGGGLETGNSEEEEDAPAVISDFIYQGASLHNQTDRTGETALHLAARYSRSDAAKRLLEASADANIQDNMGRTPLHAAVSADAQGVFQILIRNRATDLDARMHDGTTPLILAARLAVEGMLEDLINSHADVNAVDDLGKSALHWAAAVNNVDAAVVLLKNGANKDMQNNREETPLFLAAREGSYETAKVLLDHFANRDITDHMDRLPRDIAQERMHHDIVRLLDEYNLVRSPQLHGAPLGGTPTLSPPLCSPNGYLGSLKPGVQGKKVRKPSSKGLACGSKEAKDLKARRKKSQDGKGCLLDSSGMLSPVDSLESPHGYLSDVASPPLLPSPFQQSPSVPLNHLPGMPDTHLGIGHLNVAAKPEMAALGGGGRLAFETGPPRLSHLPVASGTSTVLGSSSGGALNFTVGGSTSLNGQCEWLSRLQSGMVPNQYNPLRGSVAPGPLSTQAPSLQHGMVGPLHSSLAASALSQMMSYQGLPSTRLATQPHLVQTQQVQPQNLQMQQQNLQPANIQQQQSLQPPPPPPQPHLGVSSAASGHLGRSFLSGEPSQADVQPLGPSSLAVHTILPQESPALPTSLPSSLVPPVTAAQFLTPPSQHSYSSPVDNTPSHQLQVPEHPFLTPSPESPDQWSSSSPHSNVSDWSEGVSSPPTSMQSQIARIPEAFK
# T2 sequence (P46531 19-2555): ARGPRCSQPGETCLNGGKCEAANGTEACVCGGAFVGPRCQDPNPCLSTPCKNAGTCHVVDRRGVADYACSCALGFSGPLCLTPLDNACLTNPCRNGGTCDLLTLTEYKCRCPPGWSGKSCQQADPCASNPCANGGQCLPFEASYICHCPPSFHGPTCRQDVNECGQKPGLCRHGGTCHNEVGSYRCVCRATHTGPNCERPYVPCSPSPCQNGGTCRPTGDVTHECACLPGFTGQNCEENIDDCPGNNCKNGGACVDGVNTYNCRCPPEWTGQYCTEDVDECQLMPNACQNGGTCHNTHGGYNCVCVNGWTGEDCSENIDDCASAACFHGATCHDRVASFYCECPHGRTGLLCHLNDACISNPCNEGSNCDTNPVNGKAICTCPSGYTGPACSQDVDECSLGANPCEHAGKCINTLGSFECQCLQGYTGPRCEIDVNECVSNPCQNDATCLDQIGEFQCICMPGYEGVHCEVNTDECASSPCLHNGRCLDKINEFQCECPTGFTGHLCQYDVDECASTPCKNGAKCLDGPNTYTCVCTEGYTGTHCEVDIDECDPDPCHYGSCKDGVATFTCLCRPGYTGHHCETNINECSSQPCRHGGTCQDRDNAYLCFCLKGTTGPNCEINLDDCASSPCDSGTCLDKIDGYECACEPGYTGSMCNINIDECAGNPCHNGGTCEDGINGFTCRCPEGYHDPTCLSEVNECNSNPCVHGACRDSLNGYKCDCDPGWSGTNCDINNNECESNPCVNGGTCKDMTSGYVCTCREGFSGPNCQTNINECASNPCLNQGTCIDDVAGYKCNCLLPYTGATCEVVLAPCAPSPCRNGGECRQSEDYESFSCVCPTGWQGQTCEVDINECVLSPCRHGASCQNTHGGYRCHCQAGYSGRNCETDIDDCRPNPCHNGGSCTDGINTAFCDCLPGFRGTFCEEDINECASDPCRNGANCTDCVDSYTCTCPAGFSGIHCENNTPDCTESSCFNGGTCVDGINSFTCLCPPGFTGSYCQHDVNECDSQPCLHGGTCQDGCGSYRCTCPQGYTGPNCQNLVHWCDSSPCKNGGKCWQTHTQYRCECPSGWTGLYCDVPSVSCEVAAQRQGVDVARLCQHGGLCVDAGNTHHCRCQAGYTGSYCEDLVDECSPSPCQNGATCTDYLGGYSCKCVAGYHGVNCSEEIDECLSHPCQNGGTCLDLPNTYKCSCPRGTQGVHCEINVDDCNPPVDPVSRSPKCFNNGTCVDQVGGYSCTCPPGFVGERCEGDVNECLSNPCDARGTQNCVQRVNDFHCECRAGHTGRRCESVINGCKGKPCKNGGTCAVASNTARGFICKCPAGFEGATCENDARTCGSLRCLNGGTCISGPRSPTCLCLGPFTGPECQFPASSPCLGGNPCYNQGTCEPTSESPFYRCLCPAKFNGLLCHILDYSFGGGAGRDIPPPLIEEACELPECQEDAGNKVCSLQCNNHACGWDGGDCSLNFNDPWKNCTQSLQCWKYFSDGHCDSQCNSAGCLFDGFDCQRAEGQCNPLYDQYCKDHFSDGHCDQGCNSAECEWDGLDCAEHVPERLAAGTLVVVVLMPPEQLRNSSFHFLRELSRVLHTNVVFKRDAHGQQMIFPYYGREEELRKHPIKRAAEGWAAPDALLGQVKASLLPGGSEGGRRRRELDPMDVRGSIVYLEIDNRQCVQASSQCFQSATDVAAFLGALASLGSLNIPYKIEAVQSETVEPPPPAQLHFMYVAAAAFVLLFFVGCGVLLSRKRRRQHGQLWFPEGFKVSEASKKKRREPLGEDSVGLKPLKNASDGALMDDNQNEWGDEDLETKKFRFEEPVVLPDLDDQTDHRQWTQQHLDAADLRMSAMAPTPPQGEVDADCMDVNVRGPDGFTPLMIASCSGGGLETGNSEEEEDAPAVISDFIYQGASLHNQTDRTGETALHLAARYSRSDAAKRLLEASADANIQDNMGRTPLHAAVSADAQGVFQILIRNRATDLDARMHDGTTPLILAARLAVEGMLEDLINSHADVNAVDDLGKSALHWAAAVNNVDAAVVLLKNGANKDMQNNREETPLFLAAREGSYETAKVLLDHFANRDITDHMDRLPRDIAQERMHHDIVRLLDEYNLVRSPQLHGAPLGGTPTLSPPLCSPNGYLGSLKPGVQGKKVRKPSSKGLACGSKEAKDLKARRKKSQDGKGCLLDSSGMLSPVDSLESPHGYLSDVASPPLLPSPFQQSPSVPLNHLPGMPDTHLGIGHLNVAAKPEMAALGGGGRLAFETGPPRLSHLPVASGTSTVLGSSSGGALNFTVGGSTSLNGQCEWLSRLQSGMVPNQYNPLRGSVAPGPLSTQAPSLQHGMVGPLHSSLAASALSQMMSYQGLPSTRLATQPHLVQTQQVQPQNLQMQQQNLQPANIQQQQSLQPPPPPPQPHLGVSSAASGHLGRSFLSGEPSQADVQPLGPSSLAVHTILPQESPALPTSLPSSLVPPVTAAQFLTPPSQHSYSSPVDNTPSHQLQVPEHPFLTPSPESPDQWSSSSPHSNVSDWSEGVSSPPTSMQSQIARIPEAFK
# T4 sequence (P46531 19-2555 L1593P limits assumed): as the sequence (P46531 19-2555) above, with L1575P counted along it
Binder,EC50 [1] [nM],"Neutralization activity (Human RGA), IC50 [3] [nM]","Neutralization activity (murine RGA), IC50 [4] [nM]",EC50 [5] [nM],Kd [6],koff [6] [s⁻¹],kon [6] [M⁻¹ s⁻¹],"IC50, MTS viability assay of HPB-ALL leukemia cells [8] [nM]","IC50, Notch1 signaling inhibition co-culture reporter assay [17] [nM]","Maximal Inhibition (%), Notch1 signaling inhibition co-culture reporter assay [17] [%]",further results
"humanized 351 VH1.0/VL1.4 (antibody, human IgG1, V domains shown) VH: EVQLVESGGGLVQPGGSLRLSCAASGFTFSHYGMNWVRQAPGKGLEWVASISRSGSYIRYVDTVKGRFTISRDNAKNSLYLQMNSLRAEDTAVYYCAREGQFGDYFEYWGQGTLVTVSS VL: DIQMTQSPSSLSASVGDRVTITCRASQKISTNLHWYQQKPGKAPKLLIKYASQTISGVPSRFSGSGSGTDFTLTISSLQPEDFATYYCQQTNSWPLTFGGGTKVEIK",0.1,0.17,0.49,0.07,4.88 nM and 4.9 nM,0.00223,458000,,,,EC50 [2]: 2.11 nM; Fold difference from rat 351 [7]: 2.1 fold
"humanized 438 VH1.1/VL1.8 (antibody, human IgG1, kappa, V domains shown, full chains (VH1.1)-hIgG1-3M and (VL1.8)-hkappa) VH: EVQLVESGGGLVQPGGSLRLSCAASGFTFSSFAMAWVRQAPGKGLEWVASISYGGADTYYRDSVKGRFTISRDNAKNSLYLQMNSLRAEDTAVYYCAKDLPYYGYTPFVMDAWGQGTLVTVSS VL: DIQMTQSPSSLSASVGDRVTITCRASQRINTDLHWYQQKPGKAPKVLIKFASQTISGVPSRFSGSGSGTDFTLTISSLQPEDFATYYCQQSNSWPYTFGQGTKLEIKR",0.203,,,0.149,2.1 nM,0.000449,214000,2.26,,,"EC50 [9]: 3.2 nM; IC50, human Notch1 reporter gene co-culture assay (DLL4-HEK293) [10]: 0.17 nM; IC50, mouse Notch1 reporter gene co-culture assay (DLL4-HEK293) [11]: 0.46 nM; Fold difference from rat 438 [12]: 0.48 fold; EC50 [13]: 1.2 nM"
"rat 351-mIgG1 (antibody, V domains shown) VH: EVQLVESGGGLVQPGRSLKVSCLASGFTFSHYGMNWIRQAPGKGLDWVASISRSGSYIRYVDTVKGRFTVSRDIAKNTLYLQMTSLRSEDTALYYCAREGQFGDYFEYWGQGVMVTVSS VL: DIMLTQSPATLSVTPGERISLSCRASQKISTNLHWYQQKPNESPRILIKYASQTISGIPSRFSGSGSGTDFTLHINTVEPEDFSVYYCQQTNSWPLTFGSGTKLEIK",,0.22,0.42,,,,,1.27,,,"Normalized Notch1^ICD level, HPB-ALL cells, 0.001 µg/ml antibody [14]: 0.833 relative to untreated; Normalized Notch1^ICD level, HPB-ALL cells, 0.01 µg/ml antibody [14]: 0.886 relative to untreated; Normalized Notch1^ICD level, HPB-ALL cells, 0.1 µg/ml antibody [14]: 0.156 relative to untreated; Normalized Notch1^ICD level, HPB-ALL cells, 1 µg/ml antibody [14]: 0.075 relative to untreated; Normalized Notch1^ICD level, HPB-ALL cells, 10 µg/ml antibody [14]: 0.02 relative to untreated; Normalized Notch1^ICD level, CCRF-CEM cells, 0.001 µg/ml antibody [15]: 0.982 relative to untreated; Normalized Notch1^ICD level, CCRF-CEM cells, 0.01 µg/ml antibody [15]: 1.04 relative to untreated; Normalized Notch1^ICD level, CCRF-CEM cells, 0.1 µg/ml antibody [15]: 0.413 relative to untreated; Normalized Notch1^ICD level, CCRF-CEM cells, 1 µg/ml antibody [15]: 0.043 relative to untreated; Normalized Notch1^ICD level, CCRF-CEM cells, 10 µg/ml antibody [15]: 0.034 relative to untreated; Firefly/Renilla Luminescence, human Notch1 reporter cells + 5 mM EDTA, 0.01 µg/mL antibody [16]: 304 Firefly/Renilla ratio; Firefly/Renilla Luminescence, human Notch1 reporter cells + 5 mM EDTA, 0.1 µg/mL antibody [16]: 202 Firefly/Renilla ratio; Firefly/Renilla Luminescence, human Notch1 reporter cells + 5 mM EDTA, 1 µg/mL antibody [16]: 84.8 Firefly/Renilla ratio; Firefly/Renilla Luminescence, human Notch1 reporter cells + 5 mM EDTA, 10 µg/mL antibody [16]: 62.1 Firefly/Renilla ratio; Firefly/Renilla Luminescence, human Notch1 reporter cells + 5 mM EDTA, 30 µg/mL antibody [16]: 57 Firefly/Renilla ratio"
"rat 351(R58Y)-mIgG1 (antibody, V domains shown) VH: EVQLVESGGGLVQPGRSLKVSCLASGFTFSHYGMNWIRQAPGKGLDWVASISRSGSYIYYVDTVKGRFTVSRDIAKNTLYLQMTSLRSEDTALYYCAREGQFGDYFEYWGQGVMVTVSS VL: DIMLTQSPATLSVTPGERISLSCRASQKISTNLHWYQQKPNESPRILIKYASQTISGIPSRFSGSGSGTDFTLHINTVEPEDFSVYYCQQTNSWPLTFGSGTKLEIK",,,,,,,,2.17,0.21,95.3,
"rat 351(R58Y/V60A)-mIgG1 (antibody, V domains shown) VH: EVQLVESGGGLVQPGRSLKVSCLASGFTFSHYGMNWIRQAPGKGLDWVASISRSGSYIYYADTVKGRFTVSRDIAKNTLYLQMTSLRSEDTALYYCAREGQFGDYFEYWGQGVMVTVSS VL: DIMLTQSPATLSVTPGERISLSCRASQKISTNLHWYQQKPNESPRILIKYASQTISGIPSRFSGSGSGTDFTLHINTVEPEDFSVYYCQQTNSWPLTFGSGTKLEIK",,,,,,,,2.49,0.16,95.3,
